Laboratory results taken from patent US20200317768A1 (published 2020).
Where a chain is given by its changes, count along the chain named.

T1: cynomolgus monkey FcγRIIa1 extracellular domain, His-tagged (cynomolgus monkey)
T1 construct: also called cyno FcγRIIa1; cynoFcgRIIa1; not shown: C-terminal His-tag
T1 chain: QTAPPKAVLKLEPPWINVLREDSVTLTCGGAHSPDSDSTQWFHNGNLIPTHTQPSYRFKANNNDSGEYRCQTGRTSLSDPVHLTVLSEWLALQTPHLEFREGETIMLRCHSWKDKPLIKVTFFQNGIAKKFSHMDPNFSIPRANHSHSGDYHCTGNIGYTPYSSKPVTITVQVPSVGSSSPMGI

T2: cynomolgus monkey FcγRIIa2 extracellular domain, His-tagged (cynomolgus monkey)
T2 construct: also called cyno FcγRIIa2; cynoFcgRIIa2; not shown: C-terminal His-tag
T2 chain: T1 chain with P95T, T121A, I127K, A128S, K130N, D135N, R142Q

T3: cynomolgus monkey FcγRIIa3 extracellular domain, His-tagged (cynomolgus monkey)
T3 construct: also called cyno FcγRIIa3; cynoFcgRIIa3; not shown: C-terminal His-tag
T3 chain: T1 chain with P95T, T121A, A128S, H133P, D135N

T4: cynomolgus monkey FcγRIIb extracellular domain, His-tagged (cynomolgus monkey)
T4 construct: also called cyno FcγRIIb; cynoFcγRIIb; not shown: C-terminal His-tag
T4 chain: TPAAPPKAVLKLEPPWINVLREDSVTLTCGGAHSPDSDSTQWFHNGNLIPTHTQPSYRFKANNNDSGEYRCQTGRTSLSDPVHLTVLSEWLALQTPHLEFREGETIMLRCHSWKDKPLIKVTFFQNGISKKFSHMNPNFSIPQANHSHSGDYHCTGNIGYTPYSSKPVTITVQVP

T5: human FcγRIIaH extracellular domain, His-tagged (human, UniProt P12318 34-217)
T5 construct: also called human FcγRIIa (type H); FcgRIIaH; not shown: C-terminal His-tag
T5 sequence: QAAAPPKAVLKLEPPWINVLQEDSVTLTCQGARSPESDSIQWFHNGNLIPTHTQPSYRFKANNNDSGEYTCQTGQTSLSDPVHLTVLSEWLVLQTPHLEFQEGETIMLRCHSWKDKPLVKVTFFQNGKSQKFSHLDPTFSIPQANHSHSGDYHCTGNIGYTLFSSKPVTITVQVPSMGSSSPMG

T6: human FcγRIIaR extracellular domain, His-tagged (human, UniProt P12318 34-217)
T6 construct: also called human FcγRIIa (type R); FcgRIIaR; not shown: C-terminal His-tag
T6 chain: T5 sequence with H134R

T7: human FcγRIIb extracellular domain, His-tagged (human, UniProt P31994 43-217)
T7 construct: also called FcgRIIb (human); not shown: C-terminal His-tag
T7 sequence: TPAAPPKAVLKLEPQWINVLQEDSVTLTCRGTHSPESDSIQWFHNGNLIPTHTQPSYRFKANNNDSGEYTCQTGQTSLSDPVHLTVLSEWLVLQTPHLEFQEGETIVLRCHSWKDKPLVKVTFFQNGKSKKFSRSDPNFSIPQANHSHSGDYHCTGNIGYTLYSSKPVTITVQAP

B1: MS_M103205H795-SG1/M103202L889-SK1 (antibody, human IgG1, kappa)
heavy: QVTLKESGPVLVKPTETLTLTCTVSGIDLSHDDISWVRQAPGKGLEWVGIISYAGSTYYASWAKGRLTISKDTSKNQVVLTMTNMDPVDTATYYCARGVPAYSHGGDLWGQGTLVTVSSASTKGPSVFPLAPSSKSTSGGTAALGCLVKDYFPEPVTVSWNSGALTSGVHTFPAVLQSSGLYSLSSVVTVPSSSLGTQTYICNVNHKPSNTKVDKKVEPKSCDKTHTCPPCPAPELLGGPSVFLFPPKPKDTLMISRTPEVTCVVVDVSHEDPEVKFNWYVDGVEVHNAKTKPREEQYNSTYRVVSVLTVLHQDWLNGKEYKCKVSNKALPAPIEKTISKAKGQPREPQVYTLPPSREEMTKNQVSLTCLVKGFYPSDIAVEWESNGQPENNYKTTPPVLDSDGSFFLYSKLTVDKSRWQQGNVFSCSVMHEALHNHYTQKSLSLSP
light: DIVMTQSPATLSLSPGERATLSCTSSQSVYHANWLSWFQQKPGQPPKLLIYWASTLAYGVPSRFSGSGSGTDFTLTISSLQPEDAATYYCAGGYGGGRYAFGQGTKVEIKRTVAAPSVFIFPPSDEQLKSGTASVVCLLNNFYPREAKVQWKVDNALQSGNSQESVTEQDSKDSTYSLSSTLTLSKADYEKHKVYACEVTHQGLSSPVTKSFNRGEC
notes: Parent antibody with heavy chain constant region SG1; also called MS1032LO06-SG1; copies: 2 + 2
B2: M103205H795-MY265/M103202L889-SK1 (antibody, human IgG1, kappa)
heavy: QVTLKESGPVLVKPTETLTLTCTVSGIDLSHDDISWVRQAPGKGLEWVGIISYAGSTYYASWAKGRLTISKDTSKNQVVLTMTNMDPVDTATYYCARGVPAYSHGGDLWGQGTLVTVSSASTKGPSVFPLAPSSKSTSGGTAALGCLVKDYFPEPVTVSWNSGALTSGVHTFPAVLQSSGLYSLSSVVTVPSSSLGTQTYICNVNHKPSNTKVDKKVEPKSCDKTHTCPPCPAPELLTGPSVFLFPPKPKDTLMISRTPEVTCVVVDVSDEDPEVKFNWYVDGVEVHNAKTKPREEQYNSTYRVVSVLTVLHQDWLNGKEYKCKVSNKALPKPIEKTISKAKGQPREPQVYTLPPSREEMTKNQVSLTCLVKGFYPSDIAVEWESNGQPENNYKTTPPVLDSDGSFFLYSKLTVDKSRWQQGNVFSCSVMHEALHNHYTQKSLSLSP
light: B1 light
notes: also called MS103205H795-MY265; copies: 2 + 2
B3: M103205H795-MY441/M103202L889-SK1 (antibody, human IgG1, kappa)
heavy: B2 heavy with P234A
light: B1 light
notes: copies: 2 + 2
B4: M103205H795-MY442/M103202L889-SK1 (antibody, human IgG1, kappa)
heavy: B2 heavy with P234D
light: B1 light
notes: copies: 2 + 2
B5: M103205H795-MY443/M103202L889-SK1 (antibody, human IgG1, kappa)
heavy: B2 heavy with P234E
light: B1 light
notes: copies: 2 + 2
B6: M103205H795-MY444/M103202L889-SK1 (antibody, human IgG1, kappa)
heavy: B2 heavy with P234F
light: B1 light
notes: copies: 2 + 2
B7: M103205H795-MY445/M103202L889-SK1 (antibody, human IgG1, kappa)
heavy: B2 heavy with P234G
light: B1 light
notes: copies: 2 + 2
B8: M103205H795-MY446/M103202L889-SK1 (antibody, human IgG1, kappa)
heavy: B2 heavy with P234H
light: B1 light
notes: copies: 2 + 2
B9: M103205H795-MY447/M103202L889-SK1 (antibody, human IgG1, kappa)
heavy: B2 heavy with P234I
light: B1 light
notes: copies: 2 + 2
B10: M103205H795-MY448/M103202L889-SK1 (antibody, human IgG1, kappa)
heavy: B2 heavy with P234K
light: B1 light
notes: copies: 2 + 2
B11: M103205H795-MY459/M103202L889-SK1 (antibody, human IgG1, kappa)
heavy: B2 heavy with A233D
light: B1 light
notes: copies: 2 + 2
B12: M103205H795-MY460/M103202L889-SK1 (antibody, human IgG1, kappa)
heavy: B2 heavy with A233E
light: B1 light
notes: copies: 2 + 2
B13: M103205H795-MY461/M103202L889-SK1 (antibody, human IgG1, kappa)
heavy: B2 heavy with A233F
light: B1 light
notes: copies: 2 + 2
B14: M103205H795-MY462/M103202L889-SK1 (antibody, human IgG1, kappa)
heavy: B2 heavy with A233G
light: B1 light
notes: copies: 2 + 2

Legend:
Experiment in all cases: SPR (BIACORE), captured antibody, FcgR as analyte
[1] = biological target: T1, cynomolgus monkey FcγRIIa1 …
Procedure: (§1) The kinetic analysis of interactions between these antibodies and FcγR was carried out using BIACORE® T200 or BIACORE® 4000 (GE Healthcare). HBS-EP+ (GE Healthcare) was used as the running buffer, and the measurement temperature was set to 25° C. A chip produced by immobilizing Protein A. Protein A/G or mouse anti-human IgG kappa light chain (BD Biosciences) onto a Series S Sensor Chip CM4 or CM5 (GE Healthcare) by the amine-coupling method was used. […] After the measurement, the antibody captured on the chip was washed off by allowing reaction with 10 mM glycine-HCl, pH1.5 and 25 mM NaOH so that the chip was regenerated and used repeatedly. The sensorgrams obtained as measurement results were analyzed by the 1:1 Langmuir binding model using the BIACORE® Evaluation Software to calculate the binding rate constant ka (L/mol/s) and dissociation rate constant kd (l/s), and the dissociation constant KD (mol/L) was calculated from these values. […] Regarding such interactions, KD values were calculated using the following 1:1 binding model described in BIACORE® T100 Software Handbook BR1006-48 Edition AE.

[2] = biological target: T2, cynomolgus monkey FcγRIIa2 …
Procedure: as §1

[3] = biological target: T3, cynomolgus monkey FcγRIIa3 …
Procedure: as §1

[4] = biological target: T4, cynomolgus monkey FcγRIIb extracellular …
Procedure: as §1

[5] = biological target: T5, human FcγRIIaH extracellular domain, …
Procedure: as §1

[6] = biological target: T6, human FcγRIIaR extracellular domain, …
Procedure: as §1

[7] = biological target: T7, human FcγRIIb extracellular domain, …
Procedure: as §1

[8] = biological target: T8, human FcγRIIIaV extracellular domain, His-tagged (human, UniProt P08637 17-208)
T8 construct: also called FcgRIIIaV; not shown: C-terminal His-tag
T8 sequence (P08637 17-208 F176V): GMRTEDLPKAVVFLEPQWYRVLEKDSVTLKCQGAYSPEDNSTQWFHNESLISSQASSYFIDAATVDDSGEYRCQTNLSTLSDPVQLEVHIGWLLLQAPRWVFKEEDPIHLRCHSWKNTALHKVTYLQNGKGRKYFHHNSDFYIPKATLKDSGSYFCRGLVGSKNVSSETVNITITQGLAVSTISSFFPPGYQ
Procedure: as §1

| Binder | Kd [1] [nM] | Kd [2] [nM] | Kd [3] [nM] | Kd [4] [nM] | Kd [5] [nM] | Kd [6] [nM] | Kd [7] [nM] | Kd [8] [nM] |
| --- | --- | --- | --- | --- | --- | --- | --- | --- |
| B1 | 3200 | 5100 | 17000 | 1800 | 690 | 1100 | 4600 | 810 |
| B2 | 2200 | 1900 | 4800 | 590 | 210 | 440 | 2200 | 54000 |
| B3 | 3800 | 3300 | 8000 | 880 | 360 | 650 | 2800 | 8100 |
| B4 | 4400 | 4200 | 6800 | 1100 | 460 | 420 | 1800 | 4700 |
| B5 | 4800 | 5000 | 8800 | 1200 | 530 | 640 | 2800 | 5900 |
| B6 | 1200 | 1100 | 1900 | 300 | 110 | 140 | 740 | 5200 |
| B7 | 5600 | 5500 | 14000 | 1400 | 560 | 1200 | 4200 | 9500 |
| B8 | 2500 | 2200 | 4700 | 630 | 260 | 480 | 2400 | 7100 |
| B9 | 990 | 880 | 1050 | 230 | 97 | 98 | 440 | 4000 |
| B10 | 9600 | 7500 | 21000 | 2300 | 930 | 2200 | 8400 | 13000 |
| B11 | 5000 | 4700 | 7500 | 1100 | 390 | 560 | 2500 | 8700 |
| B12 | 3100 | 3100 | 5500 | 790 | 260 | 550 | 2400 | 6700 |
| B13 | 1300 | 1800 | 3300 | 470 | 130 | 340 | 1700 | 5400 |
| B14 | 1900 | 1600 | 4200 | 470 | 240 | 490 | 1900 | 5400 |
